# From patent US20230037815A1 (CULLINAN THERAPEUTICS, published 2023)
# B1: CNG-HSA-106 (VHH)
# VHH: KVQLLESGGGLVQPGGSLRLSCAASGFTFSSFGMSWVRQAPGKGLEWVSSISGSGSDTLYADSVRGRFTISRDNSKNTLYLQMDSLRAEDTAVYYCTIGGSRSISSQGTLVTVSS
# B2: CNG-CD3-1 scFv construct (scFv)
# scFv: DIVMTQSPDSLAVSLGERATINCKSSQSLLNARTGKNYLAWYQQKPGQPPKLLIYWASTRESGVPDRFSGSGSGTDFTLTISSLQAEDVAVYYCKQSYSRRTFGGGTKVEIKGGGGSGGGGSGGGGSGGGGSQVQLVQSGAEVKKPGASVKVSCKASGFNIKDYYMHWVRQAPGQRLEWMGWIDLENANTIYDAKFQGRVTITRDTSASTAYMELSSLRSEDTAVYYCARDAYGRYFYDVWGQGTLVTVSS
# What was measured:
# human serum albumin = molecular target: T1, human serum albumin (human, UniProt P02768 25-609); assay: Octet HTX (ForteBio), HCAb on AHC sensor, 1:1 fit
# T1 construct: also called HSA
# cynomolgus serum albumin = cynomolgus serum albumin (cynomolgus, UniProt A2V9Z4 25-608); assay: Octet HTX (ForteBio), HCAb on AHC sensor, 1:1 fit
# cynomolgus serum albumin, sequence (A2V9Z4 25-608 limits assumed): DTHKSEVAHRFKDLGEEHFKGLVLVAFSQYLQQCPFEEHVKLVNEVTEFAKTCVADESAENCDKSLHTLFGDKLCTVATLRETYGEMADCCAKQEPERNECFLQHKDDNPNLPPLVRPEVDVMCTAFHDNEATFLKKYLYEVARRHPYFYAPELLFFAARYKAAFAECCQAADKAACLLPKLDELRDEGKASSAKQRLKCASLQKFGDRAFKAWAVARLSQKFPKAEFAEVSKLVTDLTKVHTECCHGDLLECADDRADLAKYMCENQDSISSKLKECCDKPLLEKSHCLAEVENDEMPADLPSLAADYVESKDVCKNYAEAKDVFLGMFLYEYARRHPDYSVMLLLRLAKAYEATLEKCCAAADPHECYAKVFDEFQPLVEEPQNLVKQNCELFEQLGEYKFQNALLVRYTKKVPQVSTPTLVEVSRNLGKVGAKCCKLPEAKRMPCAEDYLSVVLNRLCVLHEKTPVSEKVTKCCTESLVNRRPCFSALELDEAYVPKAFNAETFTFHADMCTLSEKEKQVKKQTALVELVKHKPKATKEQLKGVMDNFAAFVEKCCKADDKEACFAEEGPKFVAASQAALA
# mouse serum albumin [1] = molecular target: T2, mouse serum albumin (mouse, UniProt P07724 25-608); assay: Octet HTX (ForteBio), HCAb on AHC sensor, 1:1 fit
# T2 construct: also called MSA
# T2 sequence (P07724 25-608 limits assumed): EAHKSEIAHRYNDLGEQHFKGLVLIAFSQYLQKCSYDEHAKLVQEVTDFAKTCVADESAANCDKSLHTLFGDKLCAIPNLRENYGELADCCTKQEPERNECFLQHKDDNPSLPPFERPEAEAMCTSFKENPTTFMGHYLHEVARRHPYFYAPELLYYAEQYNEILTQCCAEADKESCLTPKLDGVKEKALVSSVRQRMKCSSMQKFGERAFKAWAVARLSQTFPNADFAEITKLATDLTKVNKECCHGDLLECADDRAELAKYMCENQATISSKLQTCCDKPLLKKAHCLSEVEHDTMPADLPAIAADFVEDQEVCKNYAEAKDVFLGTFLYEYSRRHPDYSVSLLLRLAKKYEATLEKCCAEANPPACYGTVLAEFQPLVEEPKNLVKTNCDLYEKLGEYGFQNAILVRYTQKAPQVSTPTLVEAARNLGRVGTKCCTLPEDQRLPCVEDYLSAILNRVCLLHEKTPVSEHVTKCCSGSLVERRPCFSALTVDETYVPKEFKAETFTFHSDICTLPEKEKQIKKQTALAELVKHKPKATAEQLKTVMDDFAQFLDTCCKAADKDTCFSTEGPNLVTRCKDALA
# mouse serum albumin [2] = molecular target: T2, mouse serum albumin; assay: ratio of the Octet KD for mouse serum albumin to that for human serum albumin
# protein A = protein A (UniProt P38507 37-327); assay: Octet HTX (ForteBio), HCAb on AHC sensor; legend: no binding was detected under the conditions of this assay
# human CD3 [3] = molecular target: human CD3 (human); assay: method not given
# human CD3 (human), sequence (chain, as listed by the source): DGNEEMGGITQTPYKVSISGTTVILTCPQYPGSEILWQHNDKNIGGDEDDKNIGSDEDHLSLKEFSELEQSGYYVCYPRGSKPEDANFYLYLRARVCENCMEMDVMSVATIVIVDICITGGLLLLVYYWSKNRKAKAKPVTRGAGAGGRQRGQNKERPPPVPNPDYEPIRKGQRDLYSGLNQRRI
# human CD3 [4] = molecular target: human CD3 (human); assay: BLI, Octet method of WO2018208864A1
# human CD3 [5] = molecular target: human CD3 (human); assay: SPR, BiaCore method of WO2018208864A1
Binder,Kd (human serum albumin) [nM],koff (human serum albumin) [s⁻¹],Kd (cynomolgus serum albumin) [nM],koff (cynomolgus serum albumin) [s⁻¹],Kd (mouse serum albumin [1]) [nM],koff (mouse serum albumin [1]) [s⁻¹],Ratio of MSA-KD to HSA-KD (mouse serum albumin [2]),binding result (protein A),Kd (human CD3 [3]) [nM],Kd (human CD3 [4]) [nM],Kd (human CD3 [5]) [nM]
B1,17,0.00297,14.4,0.00238,57.8,0.0124,3.41,no binding,–,–,–
B2,–,–,–,–,–,–,–,–,1.6,4.4,1.9
